# B1: Early protein (Human adenovirus A serotype 12 (HAdV-12)), P03259-2 (parent)
# chain: MRTEMTPLVLSYQEADDILEHLVDNFFNEVPSDDDLYVPSLYELYDLDVESAGEDNNEQAVNEFFPESLILAASEGLFLPEPPVLSPVCEPIGGECMPQLHPEDMDLLCYEMGFPCSDSEDEQDENGMAHVSASAAAAAADREREEFQLDHPELPGHNCPVSDNEPEPNSTLDGDERPSPPKLGSAVPEGVIKPVPQRVTGRRRCAVESILDLIQEEEREQTVPVDLSVKRPRCN
# Variants of: B1
# Details: with cbp_human CREBBP
row,Variant,effect of a mutation on the interaction
1,L19S,decreasing interaction
2,D16A,disrupting interaction
3,I18P,decreasing interaction
